This note sets out measurements from patent publication US20180155451A1 (published 2018).

Substitutions are numbered along the chain they refer to. Names may count otherwise.

Assay [1] addresses T1, FcγRIIb (human, UniProt P31994 43-217).
T1 construct: extracellular domain; for crystallography expressed with Kifunesine and trimmed with Endo F1; also called FcgRIIb; FcgR2b; not shown: His tag attached to the C terminus
T1 sequence (looked up): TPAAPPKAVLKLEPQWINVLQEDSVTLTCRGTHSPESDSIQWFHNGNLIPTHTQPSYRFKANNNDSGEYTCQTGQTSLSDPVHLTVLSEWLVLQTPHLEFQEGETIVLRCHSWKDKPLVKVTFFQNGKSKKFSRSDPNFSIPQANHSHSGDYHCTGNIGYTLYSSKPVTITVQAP
The experiment in a line: SPR (Biacore), KD.

The target in assay [2] is T2, FcgRIIb (human, UniProt P31994 43-217).
T2 construct: extracellular domain; also called FcγRIIb; CD32B; not shown: C-terminal His tag
T2 sequence (looked up): T1 sequence (looked up)
The experiment in a line: SPR (Biacore), antibody captured on chip, FcgR as analyte.

Assay [3] has as its target T3, FcgRIIIaF (human, UniProt P08637 17-208).
T3 construct: extracellular domain; F158 allotype; also called FcγRIIIa F; not shown: C-terminal His tag
Described as above.

For assay [4], the target named is T4, FcgRIIIaV (human, UniProt P08637 17-208).
T4 construct: extracellular domain; V158 allotype; also called FcγRIIIa V; not shown: C-terminal His tag
Described as above.

The target of assay [5] is T5, FcgRIIaH (human, UniProt P12318 34-217).
T5 construct: extracellular domain; H131 allotype; also called FcγRIIa H; FcgRIIa type H; not shown: C-terminal His tag
T5 sequence (looked up): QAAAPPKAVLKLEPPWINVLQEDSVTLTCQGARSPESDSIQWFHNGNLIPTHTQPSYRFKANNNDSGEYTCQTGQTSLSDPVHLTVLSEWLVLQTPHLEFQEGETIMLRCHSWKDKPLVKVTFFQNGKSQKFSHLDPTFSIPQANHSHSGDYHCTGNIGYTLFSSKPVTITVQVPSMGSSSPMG
Described as above.

In assay [6] the target is T6, FcgRIIaR (human, UniProt P12318 34-217).
T6 construct: extracellular domain; R131 allotype; also called FcγRIIa R; FcgRIIa type R; not shown: C-terminal His tag
T6 sequence (looked up): T5 sequence (looked up) with H134R
The description is as above.

Assay [7] concerns the target T2, FcgRIIb. Description: SPR (Biacore); KD of H240-Kn120/H240-Hl068/L73-k0 divided by KD of the sample.
Assay [8] concerns the target T3, FcgRIIIaF. Described as above.
In assay [9] the target is T4, FcgRIIIaV. Described as above.
The target of assay [10] is T5, FcgRIIaH. Described as above.
Assay [11] has as its target T6, FcgRIIaR. The assay is described as above.
Another assay deals with T7, FcgRIa (human, UniProt P12314 16-292).
T7 construct: extracellular domain; also called FcγRIa; FcγRI; not shown: C-terminal His tag
Description: SPR (Biacore 4000), antibody captured on chip, FcgR as analyte; kd below the limit 5e-5 /s. As to the method:
The variants described above were assessed for their binding to FcγR according to the method described in Reference Example 8.
Analysis of interaction between obj ective antibody and the FcγR was carried out using Biacore T100 (GE Healthcare), Biacore T200, Biacore A100, and Biacore 4000. HBS-EP+ (GE Healthcare) was used as the running buffer, and the measurement temperature was set to 25° C. Chips produced by immobilizing the antigen peptide by the amine coupling method to a Series S sensor Chip CM5 (GE Healthcare), chips produced by allowing preliminarily biotinylated antigen peptides to interact with and immobilize onto a Series S Sensor Chip SA (certified) (GE Healthcare), chips produced by immobilizing Protein L (ACTIGEN, BioVision) to Series S Sencor Chip CM5 (GE Healthcare), or chips produced by immobilizing Protein A/G (Thermo Scientific) to Series S Sencor Chip CM5 (GE Healthcare) were used. Antibodies of interest were captured onto these chips, and allowed to interact to each FcγR diluted with running buffer. To regenerate and repeatedly use the chip, the antibodies captured onto the chip were washed off by reacting 10 mM glycine-HCl, pH 1.5.

Assay [12] has as its target T1, FcγRIIb. Description: SPR (Biacore), relative binding; compared with GpH7-A5/GpH7-B12/GpL16-k0. As to the method: (§1) Analysis of interaction between objective antibody and the FcγR was carried out using Biacore T100 (GE Healthcare). HBS-EP+ (GE Healthcare) was used as the running buffer, and the measurement temperature was set to 25° C. Chips produced by immobilizing the antigen peptide by the amine coupling method to a Series S Sencor Chip CM5 (GE Healthcare), or alternatively, chips produced by allowing preliminarily biotinylated antigen peptides to interact with and immobilize onto a Series S Sensor Chip SA (certified) (GE Healthcare) were used. Antibodies of interest were captured onto an antigen peptide-immobilized chip, and allowed to interact to each FcγR diluted with running buffer. To regenerate and repeatedly use the chip, the antibodies captured on the chip were washed off by reacting 10 mM glycine-HCl, pH 1.5.

Assay [13] concerns the target T8, FcγRIIIa (human, UniProt P08637 17-208).
T8 construct: extracellular domain; The protein is soluble, His-tagged, and was expressed in FreeStyle293 cells; also called FcgRIIIa; CD16A; not shown: His tag attached to the C terminus
Description: SPR (Biacore); KD of GpH7-TA7/GpH7-B78/GpL16-k0 for FcγRIIIa divided by the KD of this antibody (the reference itself). As to the method: (§2) Then, K334G was also assessed in the same manner. GpH7-TA40 (SEQ ID NO: 47) resulting from the introduction of K334G into GpH7-TA7 was constructed, and expressed and prepared in combination with GpH7-B78 according to the method described in Reference Example 1. Furthermore, GpH7-TA50 (SEQ ID NO: 48) resulting from the introduction of K334G into GpH7-B78 was constructed, and expressed and prepared in combination with GpH7-TA7 according to the method described in Reference Example 1. To assess the effect of combinations with K334G, the prepared antibodies were compared for the FcγRIIIa binding according to the method described in Reference Example 2 (Table 18).
as §1, with “To regenerate and repeatedly use the chip, the antibodies captured on the chip were washed off by reacting 10 mM glycine-HCl, pH 1.5.” left out

Assay [14] has as its target T8, FcγRIIIa. Description: SPR (Biacore T100); antibody captured on an antigen peptide chip, FcγRIIIa as analyte; 1:1 Langmuir kinetic fit. As to the method:
as §2, §1

Assay [15] deals with T1, FcγRIIb. Description: SPR (Biacore), relative binding; compared with GpH7-A48/GpH7-B3/GpL16-k0. The protocol: as §1

T4 sequence (P08637 17-208 F176V limits assumed): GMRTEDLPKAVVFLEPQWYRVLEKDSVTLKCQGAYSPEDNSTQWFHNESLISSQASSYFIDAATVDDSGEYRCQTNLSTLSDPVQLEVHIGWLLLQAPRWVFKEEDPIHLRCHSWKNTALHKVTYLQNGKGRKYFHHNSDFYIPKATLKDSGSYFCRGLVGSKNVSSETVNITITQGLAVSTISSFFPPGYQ
T8 sequence (P08637 17-208): as the sequence (P08637 17-208 F176V limits assumed) above, with V160F counted along it
T3 sequence (P08637 17-208): as the sequence (P08637 17-208 F176V limits assumed) above, with V160F counted along it
T7 sequence (P12314 16-292): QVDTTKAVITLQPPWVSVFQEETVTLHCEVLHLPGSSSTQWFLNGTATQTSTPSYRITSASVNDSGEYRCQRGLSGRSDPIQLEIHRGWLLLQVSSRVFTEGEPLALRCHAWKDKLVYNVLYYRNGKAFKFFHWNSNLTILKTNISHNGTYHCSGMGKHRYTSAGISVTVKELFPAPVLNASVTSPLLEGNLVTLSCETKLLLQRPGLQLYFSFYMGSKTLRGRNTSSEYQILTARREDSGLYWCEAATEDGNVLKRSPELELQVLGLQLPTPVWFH

B1: H240-Kn120/H240-Hl068/L73-k0 (antibody, human IgG1, kappa)
heavy 1: QDQLVQSGAEVKKPGASVKVSCKASGFNIKDTYIQWVRQAPGQGLEWMGRIDPLRKQTKYREKFEGRVTITADTSTNTAYMELSSLRSEDTAVYYCVRSGREFDYWGQGTLVTVSSASTKGPSVFPLAPSSKSTSGGTAALGCLVKDYFPEPVTVSWNSGALTSGVHTFPAVLQSSGLYSLSSVVTVPSSSLGTQTYICNVNHKPSNTKVDKKVEPKSCDKTHTCPPCPAPEYYWGPMVFLFPPKPKDTLMISRTPEVTCVVVDVSDEDPEVKFNWYVDGVEVHNAKTKPREEQYNATYRVVSVLTVLHQDWLNGKEYKCKVSNKDLPAPIEKTISKAKGQPREPQVCTLPPSRDELTKNQVSLWCLVKGFYPSDIAVEWESNGQPENNYKTTPPVLDSDGSFFLYSKLTVDKSRWQQGNVFSCSVMHEALHNHYTQKSLSLSP
heavy 2: QDQLVQSGAEVKKPGASVKVSCKASGFNIKDTYIQWVRQAPGQGLEWMGRIDPLRKQTKYREKFEGRVTITADTSTNTAYMELSSLRSEDTAVYYCVRSGREFDYWGQGTLVTVSSASTKGPSVFPLAPSSKSTSGGTAALGCLVKDYFPEPVTVSWNSGALTSGVHTFPAVLQSSGLYSLSSVVTVPSSSLGTQTYICNVNHKPSNTKVDKKVEPKSCDKTHTCPPCPAPELLGGPSVFLFPPKPKDTLMISRTPEVTCVVVDVSHEEPEVKFNWYVDGVEVHNAKTKPREEQYNSTYRVVSVLTVLHQDWLNGKEYKCKVSNDALPKPIEETISKAKGQPREPQVYTLPPSRCELTKNQVSLSCAVKGFYPSDIAVEWESNGQPENNYKTTPPVLDSDGSFFLVSKLTVDKSRWQQGNVFSCSVMHEALHNHYTQKSLSLSP
light: DIQMTQSPSSLSASVGDRVTITCRASQDIHKYIAWYQQKPGQAPRLLIQYTSTLQPGVPSRFSGSGSGTDYTFTISSLQPEDIATYYCLQYEQLRTFGGGTKVEIKRTVAAPSVFIFPPSDEQLKSGTASVVCLLNNFYPREAKVQWKVDNALQSGNSQESVTEQDSKDSTYSLSSTLTLSKADYEKHKVYACEVTHQGLSSPVTKSFNRGEC
notes: S239M added to H240-Kn067
With B1, in the assay with FcγRIIb [1], the “fold increase of binding activity over native IgG1” value was ~50 fold.

B2: H240-Kn193/H240-Hl204/L73-k0 (antibody, human IgG1, kappa)
heavy 1: B1 heavy 1 with Y234N, E293R
heavy 2: B1 heavy 2 with G235T, I331E
light: B1 light
notes: Heterodimerized anti-epiregulin antibody
As for B2, the Kd was 290 nM in the assay with FcgRIIb [2]; 11 nM with FcgRIIIaF [3]; 1.8 nM in the assay with FcgRIIIaV [4]; 35 nM with FcgRIIaH [5]; 16 nM in the assay with FcgRIIaR [6]; < 0.024 nM with FcgRIa. The “Relative KD” value with FcgRIIb [7] stood at 0.5; in the assay with FcgRIIIaF [8], 0.2; in the assay with FcgRIIIaV [9], 0.2; with FcgRIIaH [10] it was 1.2; with FcgRIIaR [11] it was 1.3.

B3: GpH7-A5/GpH7-B41/GpL16-k0 (antibody, human IgG1, kappa)
heavy 1: not shown
heavy 2: QVQLVQSGAEVKKPGASVTVSCKASGYTFTDYEMHWIRQPPGEGLEWIGAIDPKTGDTAYSESFQDRVTLTADKSTSTAYMELSSLTSEDTAVYYCTRFYSYTYWGQGTLVTVSSASTKGPSVFPLAPSSKSTSGGTAALGCLVKDYFPEPVTVSWNSGALTSGVHTFPAVLQSSGLYSLSSVVTVPSSSLGTQTYICNVNHKPSNTKVDKKVEPKSCDKTHTCPPCPAPEDLGGPSVFLFPPKPKDTLMISRTPEVTCVVVDVSHEDPEVKFNWYVDGVEVHNAKTKPREEQYNSTYRVVSVLTVLHQDWLNGKEYKCKVSNKALRAPIEKTISKAKGQPREPQVYTLPPSRDELTKNQVSLTCLVKGFYPSDIAVEWESNGQPENNYKTTPPVLDSDGSFFLYSKLTVDKSRWQQGNVFSCSVMHEALHNHYTQESLSLSP
light: DIVMTQSPLSLPVTPGEPASISCQASESLVHSNRNTYLHWYLQKPGQSPQLLIYKVSNRFSGVPDRFSGSGSGTDFTLKISRVEAEDVGVYYCSQNTHVPPTFGQGTKVEIERTVAAPSVFIFPPSDEQLKSGTASVVCLLNNFYPREAKVQWKVDNALQSGNSQESVTEQDSKDSTYSLSSTLTLSKADYEKHKVYACEVTHQGLSSPVTKSFNRGEC
notes: L234D and P329R in the same H chain
As for B3, the binding result with FcγRIIb [12] is on record as “binds”.

B4: GpH7-TA7/GpH7-B78/GpL16-k0 (antibody, human IgG1, kappa)
heavy 1: B3 heavy 2 with D232Y, G234W, S296A, R327P, D354K, H433R, E437K
heavy 2: B3 heavy 2 with D232L, S237D, R327P, A328L, I330E
light: B3 light
notes: Heterodimerized anti-glypican-3 IgG1 antibody with two different H chains and a common L chain; also called TA7/B78
Turning to B4, the KD ratio with FcγRIIIa [13] turned out to be 1. In the assay with FcγRIIIa [14], the Kd was 4.1 nM.

B5: GpH7-A45/GpH7-B3/GpL16-k0 (antibody, human IgG1, kappa)
heavy 1: B3 heavy 2 with D232L, G235A, D354K, H433R, E437K
heavy 2: not shown
light: B3 light
notes: G237A and P329R in the same H chain
For B5, the binding result in the assay with FcγRIIb [15] is “binds”.
